From US20190062394A1 come the findings set out here.

Data set [1] relates to Destabilized IL-12 #5.
Data set [2] concerns Destabilized IL-12 #2.
The target of data set [3] is Destabilized IL-12 #5. Nature of the data set: cell-based or functional assay.
For data set [4], the target named is Destabilized IL-12 #2. Nature of the data set: cell-based or functional assay.
A further data set deals with T1, Destabilized IL-12 #12.
T1 chain: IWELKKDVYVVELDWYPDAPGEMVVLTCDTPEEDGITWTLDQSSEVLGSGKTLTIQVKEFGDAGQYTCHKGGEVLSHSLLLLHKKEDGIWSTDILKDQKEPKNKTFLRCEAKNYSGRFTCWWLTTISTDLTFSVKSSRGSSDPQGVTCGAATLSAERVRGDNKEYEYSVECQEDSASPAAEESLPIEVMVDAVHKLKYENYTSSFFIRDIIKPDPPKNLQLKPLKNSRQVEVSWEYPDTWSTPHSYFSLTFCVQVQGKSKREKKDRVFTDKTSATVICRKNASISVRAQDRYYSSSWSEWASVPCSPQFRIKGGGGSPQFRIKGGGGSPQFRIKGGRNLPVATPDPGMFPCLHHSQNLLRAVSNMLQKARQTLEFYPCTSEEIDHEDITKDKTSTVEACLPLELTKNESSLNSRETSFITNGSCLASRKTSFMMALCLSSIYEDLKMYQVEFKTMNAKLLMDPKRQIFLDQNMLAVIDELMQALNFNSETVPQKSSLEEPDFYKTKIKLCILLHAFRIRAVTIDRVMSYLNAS

In a further data set the target is T2, Destabilized IL-12 #27.
T2 chain: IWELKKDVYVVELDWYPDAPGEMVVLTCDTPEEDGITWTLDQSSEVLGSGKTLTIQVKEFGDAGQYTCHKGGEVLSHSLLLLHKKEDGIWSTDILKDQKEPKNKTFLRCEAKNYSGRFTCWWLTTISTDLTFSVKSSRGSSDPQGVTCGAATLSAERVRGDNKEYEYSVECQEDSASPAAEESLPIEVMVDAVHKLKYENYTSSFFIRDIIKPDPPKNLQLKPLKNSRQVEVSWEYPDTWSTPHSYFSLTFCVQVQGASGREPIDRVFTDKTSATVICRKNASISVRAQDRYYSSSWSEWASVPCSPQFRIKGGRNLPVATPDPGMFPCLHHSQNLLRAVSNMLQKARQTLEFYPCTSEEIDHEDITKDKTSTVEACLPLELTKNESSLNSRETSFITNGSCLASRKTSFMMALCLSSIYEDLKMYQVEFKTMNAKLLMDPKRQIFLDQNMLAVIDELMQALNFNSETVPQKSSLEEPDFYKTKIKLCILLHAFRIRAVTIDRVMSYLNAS

The target of a further data set is T3, Destabilized IL-12 #18.
T3 chain: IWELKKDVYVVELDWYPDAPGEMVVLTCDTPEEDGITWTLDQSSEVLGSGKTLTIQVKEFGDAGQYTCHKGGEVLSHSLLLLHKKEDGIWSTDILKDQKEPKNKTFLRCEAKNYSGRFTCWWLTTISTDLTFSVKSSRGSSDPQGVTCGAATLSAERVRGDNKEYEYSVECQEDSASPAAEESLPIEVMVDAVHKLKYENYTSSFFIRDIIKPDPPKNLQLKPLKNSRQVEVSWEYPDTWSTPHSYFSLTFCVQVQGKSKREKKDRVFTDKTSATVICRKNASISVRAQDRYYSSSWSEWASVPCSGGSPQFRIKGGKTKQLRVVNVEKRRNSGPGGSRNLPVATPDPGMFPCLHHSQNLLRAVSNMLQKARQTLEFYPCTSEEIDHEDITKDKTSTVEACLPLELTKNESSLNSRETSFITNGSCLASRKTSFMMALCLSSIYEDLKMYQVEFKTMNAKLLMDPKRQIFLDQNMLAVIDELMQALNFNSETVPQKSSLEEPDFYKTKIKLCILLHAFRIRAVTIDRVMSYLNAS

The target in another data set is T4, Destabilized IL-12 #11.
T4 chain: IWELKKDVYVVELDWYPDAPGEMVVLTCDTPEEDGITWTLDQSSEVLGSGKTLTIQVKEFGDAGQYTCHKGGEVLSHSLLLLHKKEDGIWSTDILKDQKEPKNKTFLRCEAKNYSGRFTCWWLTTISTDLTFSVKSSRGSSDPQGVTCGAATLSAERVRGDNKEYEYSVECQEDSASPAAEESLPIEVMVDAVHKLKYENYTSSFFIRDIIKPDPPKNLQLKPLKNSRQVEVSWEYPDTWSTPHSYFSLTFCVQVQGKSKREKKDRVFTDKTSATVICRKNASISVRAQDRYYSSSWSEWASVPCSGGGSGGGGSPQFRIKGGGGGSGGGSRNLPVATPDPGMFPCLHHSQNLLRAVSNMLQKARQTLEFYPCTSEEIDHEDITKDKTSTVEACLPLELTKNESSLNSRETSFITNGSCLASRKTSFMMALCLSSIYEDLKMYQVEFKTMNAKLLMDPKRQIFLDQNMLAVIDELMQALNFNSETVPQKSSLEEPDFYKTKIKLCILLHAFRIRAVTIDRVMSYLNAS

The next data set has as its target T5, Destabilized IL-12 #21.
T5 chain: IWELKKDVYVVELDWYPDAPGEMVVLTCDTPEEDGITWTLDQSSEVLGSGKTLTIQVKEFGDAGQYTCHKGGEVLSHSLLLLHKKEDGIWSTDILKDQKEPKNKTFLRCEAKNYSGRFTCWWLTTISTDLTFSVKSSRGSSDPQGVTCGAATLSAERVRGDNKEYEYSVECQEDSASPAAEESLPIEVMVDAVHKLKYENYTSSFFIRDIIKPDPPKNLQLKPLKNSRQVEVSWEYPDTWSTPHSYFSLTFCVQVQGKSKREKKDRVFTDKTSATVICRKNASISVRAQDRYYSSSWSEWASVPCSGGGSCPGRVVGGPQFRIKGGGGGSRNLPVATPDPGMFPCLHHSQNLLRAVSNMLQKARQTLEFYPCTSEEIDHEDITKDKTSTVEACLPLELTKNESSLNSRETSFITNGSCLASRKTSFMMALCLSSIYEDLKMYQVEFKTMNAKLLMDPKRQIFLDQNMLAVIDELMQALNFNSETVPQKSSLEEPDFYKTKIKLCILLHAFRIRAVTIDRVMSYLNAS

Chain of Destabilized IL-12 #4 (chain, as listed by the source): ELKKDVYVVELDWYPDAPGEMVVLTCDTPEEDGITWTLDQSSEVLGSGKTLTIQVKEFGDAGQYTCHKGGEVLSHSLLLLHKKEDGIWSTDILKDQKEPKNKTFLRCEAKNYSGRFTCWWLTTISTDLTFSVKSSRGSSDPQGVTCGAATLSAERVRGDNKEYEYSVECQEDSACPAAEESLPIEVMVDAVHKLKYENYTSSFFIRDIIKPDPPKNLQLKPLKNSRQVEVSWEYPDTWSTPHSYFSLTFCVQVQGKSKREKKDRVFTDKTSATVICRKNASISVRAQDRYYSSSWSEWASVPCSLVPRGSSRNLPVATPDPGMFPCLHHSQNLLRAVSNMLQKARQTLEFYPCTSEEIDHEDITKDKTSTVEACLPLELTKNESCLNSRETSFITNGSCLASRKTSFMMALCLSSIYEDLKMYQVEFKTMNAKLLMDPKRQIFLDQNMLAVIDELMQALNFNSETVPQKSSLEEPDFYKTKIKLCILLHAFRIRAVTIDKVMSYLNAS

For thrombin, in the data set with Destabilized IL-12 #4, the “fold reduction in biological activity (NK-92 assay) after thrombin digestion, against wild-type single chain IL-12” value (from here on “fold reduction in biological activity”) was “(~1.5 fold decrease*)”; the “thrombin cleavage (67 U/mL, 20 hours, 37 degrees C), anti-p35 immunoblot, non-reducing conditions” value is “under non-reducing conditions, thrombin cleavage of Destabilized #4 was not detected”; the “thrombin cleavage (67 U/mL, 20 hours, 37 degrees C), anti-p35 immunoblot, reducing conditions” value is “Under reducing conditions, thrombin cleavage of all three IL-12 mutants was detected”; the “thrombin cleavage (67 U/mL, 20 hours, 37 degrees C), anti-p40 immunoblot, non-reducing conditions” value was “under non-reducing conditions, thrombin cleavage of Destabilized #4 was not detected”. Besides, the “thrombin cleavage (67 U/mL, 20 hours, 37 degrees C), anti-p40 immunoblot, reducing conditions” value in the data set with Destabilized IL-12 #4 is recorded as “Under reducing conditions, thrombin cleavage of all three IL-12 mutants was detected”. Moreover, in the data set on Destabilized IL-12 #5 [1], the “fold reduction in biological activity” value is recorded as “(~9 fold decrease*)”; the “thrombin cleavage (67 U/mL, 20 hours, 37 degrees C), anti-p35 immunoblot, reducing conditions” value was “Under reducing conditions, thrombin cleavage of all three IL-12 mutants was detected”; the “thrombin cleavage (67 U/mL, 20 hours, 37 degrees C), anti-p40 immunoblot, reducing conditions” value was “Under reducing conditions, thrombin cleavage of all three IL-12 mutants was detected”. In the data set on Destabilized IL-12 #2 [2], the “fold reduction in biological activity” value is listed as “(~11 fold decrease*)”; the “thrombin cleavage (67 U/mL, 20 hours, 37 degrees C), anti-p35 immunoblot, reducing conditions” value is listed as “Under reducing conditions, thrombin cleavage of all three IL-12 mutants was detected”; the “thrombin cleavage (67 U/mL, 20 hours, 37 degrees C), anti-p40 immunoblot, reducing conditions” value was “Under reducing conditions, thrombin cleavage of all three IL-12 mutants was detected”.
Regarding thrombin (enzyme), the thrombin dose needed to reduce IFNg secretion of NK-92 cells (HTRF) in the data set with Destabilized IL-12 #5 [3] and with Destabilized IL-12 #2 [4] was 10 U/mL in each case.

B1: human Plasmin (23.3 Units/mg; Millipore) (protein)
chain: KVYLSECKTGNGKNYRGTMSKTKNGITCQKWSSTSPHRPRFSPATHPSEGLEENYCRNPDNDPQGPWCYTTDPEKRYDYCDILECEEECMHCSGENYDGKISKTMSGLECQAWDSQSPHAHGYIPSKFPNKNLKKNYCRNPDRELRPWCFTTDPNKRWELCDIPRCTTPPPSSGPTYQCLKGTGENYRGNVAVTVSGHTCQHWSAQTPHTHNRTPENFPCKNLDENYCRNPDGKRAPWCHTTNSQVRWEYCKIPSCDSSPVSTEQLAPTAPPELTPVVQDCYHGDGQSYRGTSSTTTTGKKCQSWSSMTPHRHQKTPENYPNAGLTMNYCRNPDADKGPWCFTTDPSVRWEYCNLKKCSGTEASVVAPPPVVLLPDVETPSEEDCMFGNGKGYRGKRATTVTGTPCQDWAAQEPHRHSIFTPETNPRAGLEKNYCRNPDGDVGGPWCYTTNPRKLYDYCDVPQCAAPSFDCGKPQVEPKKCPGRVVGGCVAHPHSWPWQVSLRTRFGMHFCGGTLISPEWVLTAAHCLEKSPRPSSYKVILGAHQEVNLEPHVQEIEVSRLFLEPTRKDIALLKLSSPAVITDKVIPACLPSPNYVVADRTECFITGWGETQGTFGAGLLKEAQLPVIENKVCNRYEFLNGRVQSTELCAGHLAGGTDSCQGDSGGPLVCFEKDKYILQGVTSWGLGCARPNKPGVYVRVSRFVTWIEGVMRNN
On to B1, for which the “proteolytic digestion, 1 hour, reducing SDS-PAGE and anti-p40 Western blot” value with Destabilized IL-12 #12 was “Partial digestion of DSIL-12#11, DSIL-12#12, DSIL-12#21 and DSIL-12#18 was detected with as little as 0.05 mU of plasmin”; with Destabilized IL-12 #27, 2.5 mU of plasmin were required for partial digestion of DSIL-12#27; with Destabilized IL-12 #18, “Partial digestion of DSIL-12#11, DSIL-12#12, DSIL-12#21 and DSIL-12#18 was detected with as little as 0.05 mU of plasmin”; with Destabilized IL-12 #11 it was “Partial digestion of DSIL-12#11, DSIL-12#12, DSIL-12#21 and DSIL-12#18 was detected with as little as 0.05 mU of plasmin”; in the data set with Destabilized IL-12 #21 it was “Partial digestion of DSIL-12#11, DSIL-12#12, DSIL-12#21 and DSIL-12#18 was detected with as little as 0.05 mU of plasmin”.
